In patent US20150030603A1 (SAMSUNG ELECTRONICS, published 2015):

T1: recombinant hAng-2 (C-His, R&D Systems) (human, UniProt O15123 19-496)
T1 sequence: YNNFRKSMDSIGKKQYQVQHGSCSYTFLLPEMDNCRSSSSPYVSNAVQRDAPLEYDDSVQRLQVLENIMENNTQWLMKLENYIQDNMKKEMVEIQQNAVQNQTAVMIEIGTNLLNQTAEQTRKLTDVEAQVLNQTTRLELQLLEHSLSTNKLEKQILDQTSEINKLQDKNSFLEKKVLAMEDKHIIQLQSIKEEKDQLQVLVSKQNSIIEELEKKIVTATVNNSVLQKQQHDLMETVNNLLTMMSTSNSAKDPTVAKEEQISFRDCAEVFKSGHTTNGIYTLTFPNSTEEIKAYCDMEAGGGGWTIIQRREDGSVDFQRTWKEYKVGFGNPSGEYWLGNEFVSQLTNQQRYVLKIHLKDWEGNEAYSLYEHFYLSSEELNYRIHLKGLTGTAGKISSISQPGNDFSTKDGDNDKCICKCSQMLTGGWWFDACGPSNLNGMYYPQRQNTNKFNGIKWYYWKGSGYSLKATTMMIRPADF


Tests used:
[1] = biological target: T1, recombinant hAng-2 (C-His, R&D Systems); assay: cell-based or functional assay
[2] = biological target: FLAG-tagged Ang2 RBD mutant Q418A (human) (UniProt O15123); assay: ELISA; 10D6 coated (1000 nM), 250 ng FLAG-tagged Ang2 RBD mutant, anti-FLAG-HRP, OD450; reference native Ang2; cell may be cut off at the left
[3] = biological target: FLAG-tagged Ang2 RBD mutant P419A (human) (UniProt O15123); assay: as above
[4] = biological target: FLAG-tagged Ang2 RBD mutant at A449 (substituted with alanine (so in the source)) (human) (UniProt O15123); assay: as above
BSA = biological target: T2, BSA (bovine, UniProt P02769); assay: ELISA: coated BSA, FLAG-Ang2 0.25 µg/ml and 10D6 2 µg/ml, detected with anti-mouse IgG-HRP (OD450)
T2 construct: commercial preparation (Sigma); named on the sheet under 'Coating:'; also called bovine serum albumin (Sigma); control coating
T2 sequence (P02769 25-607 limits assumed): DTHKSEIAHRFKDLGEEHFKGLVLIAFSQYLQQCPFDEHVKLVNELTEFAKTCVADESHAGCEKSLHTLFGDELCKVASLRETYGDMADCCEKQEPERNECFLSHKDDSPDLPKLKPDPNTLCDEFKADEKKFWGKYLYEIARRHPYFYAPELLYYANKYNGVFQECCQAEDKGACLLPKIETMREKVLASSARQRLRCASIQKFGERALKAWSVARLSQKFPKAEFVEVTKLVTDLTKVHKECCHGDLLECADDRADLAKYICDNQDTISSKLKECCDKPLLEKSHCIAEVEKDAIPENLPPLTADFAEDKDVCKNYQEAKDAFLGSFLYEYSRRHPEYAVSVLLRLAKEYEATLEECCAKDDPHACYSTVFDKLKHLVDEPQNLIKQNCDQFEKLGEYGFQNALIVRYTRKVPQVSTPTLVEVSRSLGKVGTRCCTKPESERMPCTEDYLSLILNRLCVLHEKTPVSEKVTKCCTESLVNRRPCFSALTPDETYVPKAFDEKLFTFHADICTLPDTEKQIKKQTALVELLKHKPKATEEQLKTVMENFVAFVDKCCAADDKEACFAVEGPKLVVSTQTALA
Description: A 96-well MaxiSorp™ flat-bottom plate (Nunc) was coated with 4 μg/ml of Tie2-Fc (R&D systems) or BSA (Sigma). Then, the plate was washed five times with 0.05% (v/v) Tween-20-containing PBS (Phosphate Buffer Saline) and blocked with 1% (v/v) BSA (Bovine serum albumin; Sigma)-containing PBS at a room temperature for 2 hours. 0.25 μg/ml of Ang2 and 2 μg/ml of 10D6 antibody were added to each well of the plate, which was allowed to react at a room temperature for 2 hours and then washed five times with PBST. After that, an anti-mouse IgG antibody (Sigma) conjugated with HRP diluted in 1% (v/v) BSA-containing PBS at a ratio of 1:5,000 (v/v) was added in an amount of 100 ul to each well to react at a room temperature for 1 hour and then, the plate was washed five times with PBST. Lastly, 100 ul (microliter) of TMB substrate (Cell Signaling) was added to each well of the plate to induce color development for 3 min. and then, the reaction was ceased by the addition of 100 ul of Stop solution (Cell Signaling) and OD450 values were measured on a plate reader (Molecular Devices).

| Binder | Tie2 phosphorylation effect against the control antibody RG [1] [fold against RG antibody] | Tie2 phosphorylation level (pTyr/Tie2 ratio) in HUVEC cells, 60 nM antibody with Ang2 [1] | binding affinity (%) with mutant Ang2 against the binding affinity with the native Ang2 [2] [%] | binding affinity (%) with mutant Ang2 against the binding affinity with the native Ang2 [3] [%] | binding affinity (%) with mutant Ang2 against the binding affinity with the native Ang2 [4] [%] | binding result (BSA) |
| --- | --- | --- | --- | --- | --- | --- |
| SAIT-ANG2-AB-m10D6 (antibody, V domains shown) VH: DVQLQESGPGLVKPSQSLSLTCTVTGYSITSDYAWNWIRQFPGNKLEWMGYINYSGNTDYNPSLKSRSSITRDTSKNQFFLQLNSVTTGDTATYYCARGNFEGAMDYWGQGTSVTVSS VL: SIVMTQTPKFLLVSAGDRVTITCKASQSVSNDVAWYQQKPGQSPKLLIYYASNRYPGVPDRFTGSGYGTDFTFTISTVQAEDLAVYFCQQDYSSPWTFGGGTKLEIK | ~8.6 | 180 % increase against Ang2 alone | 8.94 | 1.08 | 7.86 |  |
| FLAG-tagged hAng-2 (ligand, not shown: FLAG tag) YNNFRKSMDSIGKKQYQVQHGSCSYTFLLPEMDNCRSSSSPYVSNAVQRDAPLEYDDSVQRLQVLENIMENNTQWLMKLENYIQDNMKKEMVEIQQNAVQNQTAVMIEIGTNLLNQTAEQTRKLTDVEAQVLNQTTRLELQLLEHSLSTNKLEKQILDQTSEINKLQDKNSFLEKKVLAMEDKHIIQLQSIKEEKDQLQVLVSKQNSIIEELEKKIVTATVNNSVLQKQQHDLMETVNNLLTMMSTSNSAKDPTVAKEEQISFRDCAEVFKSGHTTNGIYTLTFPNSTEEIKAYCDMEAGGGGWTIIQRREDGSVDFQRTWKEYKVGFGNPSGEYWLGNEFVSQLTNQQRYVLKIHLKDWEGNEAYSLYEHFYLSSEELNYRIHLKGLTGTAGKISSISQPGNDFSTKDGDNDKCICKCSQMLTGGWWFDACGPSNLNGMYYPQRQNTNKFNGIKWYYWKGSGYSLKATTMMIRPADF |  |  |  |  |  | no binding (tested: 0.25 µg/ml) |
